Our source for the activity values is patent US20220195407, “OPTIMIZATION OF ENGINEERED MEGANUCLEASES FOR RECOGNITION SEQUENCES” (Precision BioSciences, Inc., published 2022).

Common to all, as to test: cell_activity; CHO iGFFP reporter
For one data set, the target named is T1, LOX 3-4m.2165 (artificial (I-CreI derived)).
T1 chain: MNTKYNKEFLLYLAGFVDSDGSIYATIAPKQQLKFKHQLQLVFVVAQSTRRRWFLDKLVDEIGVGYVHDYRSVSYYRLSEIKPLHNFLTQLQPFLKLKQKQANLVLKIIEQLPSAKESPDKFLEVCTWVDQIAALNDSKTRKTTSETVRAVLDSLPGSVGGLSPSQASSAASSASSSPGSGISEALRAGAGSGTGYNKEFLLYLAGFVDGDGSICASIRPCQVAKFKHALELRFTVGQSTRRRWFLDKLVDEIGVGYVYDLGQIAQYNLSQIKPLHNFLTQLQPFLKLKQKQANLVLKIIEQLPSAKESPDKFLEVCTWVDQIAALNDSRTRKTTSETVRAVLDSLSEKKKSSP
From the text:
(§1) A CHO cell reporter system (see WO/2012/167192, FIG. 3) was used to determine whether the engineered meganucleases generated in these studies could recognize and cleave the modified LOX 3-4 recognition sequences in Table 87. To perform the assay, a pair of CHO cell reporter lines were produced, which carried a non-functional Green Fluorescent Protein (GFP) gene expression cassette integrated into the genome of the cell. The GFP gene in each cell line was interrupted by a pair of recognition sequences such that intracellular cleavage of either recognition sequence by a meganuclease would stimulate a homologous recombination event resulting in a functional GFP gene. In both cell lines, one of the recognition sequences was derived from the LOX 3-4 recognition sequence (i.e., those sequences disclosed in Table 87), and the second recognition sequence was specifically recognized by a control meganuclease called “CHO 23/24.” CHO reporter cells comprising a recognition sequence derived from the LOX 3-4 recognition sequence and the CHO 23/24 recognition sequence are referred to herein as “test cells.”
(§2) Novel engineered meganucleases derived from the LOX 3-4x.109 meganuclease were prepared by making amino acid substitutions at one or more positions in the first subunit and one or more positions in the second subunit. These engineered meganucleases were then evaluated for cleavage of the LOX 3-4 recognition sequence modified to have a TCAA center sequence (SEQ ID NO: 331) in the CHO reporter assay according to Example 1.

The target in another data set is T2, LOX 3-4m.2229 (artificial (I-CreI derived)).
T2 chain: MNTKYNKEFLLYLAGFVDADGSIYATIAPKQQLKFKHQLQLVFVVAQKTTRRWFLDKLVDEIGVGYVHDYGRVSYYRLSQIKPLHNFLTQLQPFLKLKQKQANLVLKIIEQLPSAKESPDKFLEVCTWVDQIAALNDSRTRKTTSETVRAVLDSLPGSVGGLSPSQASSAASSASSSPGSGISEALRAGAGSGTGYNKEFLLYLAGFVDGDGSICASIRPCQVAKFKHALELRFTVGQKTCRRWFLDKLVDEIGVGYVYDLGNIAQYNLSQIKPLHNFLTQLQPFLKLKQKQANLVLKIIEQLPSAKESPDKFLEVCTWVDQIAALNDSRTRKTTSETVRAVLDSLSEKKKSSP
Excerpt: as §1, §2

The next data set has as its target T3, LOX 3-4m.2189 (artificial (I-CreI derived)).
T3 chain: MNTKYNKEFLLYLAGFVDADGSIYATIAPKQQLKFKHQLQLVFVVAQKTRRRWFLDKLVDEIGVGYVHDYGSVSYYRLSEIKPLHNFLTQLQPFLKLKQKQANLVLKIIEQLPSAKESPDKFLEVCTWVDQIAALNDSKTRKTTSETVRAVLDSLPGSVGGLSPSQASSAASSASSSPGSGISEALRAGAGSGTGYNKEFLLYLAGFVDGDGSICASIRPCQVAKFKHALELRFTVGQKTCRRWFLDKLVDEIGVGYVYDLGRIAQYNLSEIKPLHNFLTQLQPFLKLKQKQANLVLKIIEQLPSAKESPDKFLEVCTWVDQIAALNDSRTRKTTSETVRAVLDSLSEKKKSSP
Excerpt: as §1, §2

The next data set deals with T4, LOX 3-4m.2157 (artificial (I-CreI derived)).
T4 chain: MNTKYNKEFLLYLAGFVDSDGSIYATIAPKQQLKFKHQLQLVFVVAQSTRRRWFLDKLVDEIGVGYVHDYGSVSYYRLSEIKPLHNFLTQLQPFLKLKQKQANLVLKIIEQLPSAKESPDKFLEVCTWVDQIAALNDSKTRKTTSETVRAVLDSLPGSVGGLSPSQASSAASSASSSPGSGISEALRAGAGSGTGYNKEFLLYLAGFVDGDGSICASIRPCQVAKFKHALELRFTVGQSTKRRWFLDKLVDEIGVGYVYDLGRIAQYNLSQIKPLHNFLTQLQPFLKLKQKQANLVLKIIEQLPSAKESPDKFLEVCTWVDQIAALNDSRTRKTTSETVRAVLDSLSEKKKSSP
Excerpt: as §1, §2

A further data set concerns the target T5, LOX 3-4m.2045 (artificial (I-CreI derived)).
T5 chain: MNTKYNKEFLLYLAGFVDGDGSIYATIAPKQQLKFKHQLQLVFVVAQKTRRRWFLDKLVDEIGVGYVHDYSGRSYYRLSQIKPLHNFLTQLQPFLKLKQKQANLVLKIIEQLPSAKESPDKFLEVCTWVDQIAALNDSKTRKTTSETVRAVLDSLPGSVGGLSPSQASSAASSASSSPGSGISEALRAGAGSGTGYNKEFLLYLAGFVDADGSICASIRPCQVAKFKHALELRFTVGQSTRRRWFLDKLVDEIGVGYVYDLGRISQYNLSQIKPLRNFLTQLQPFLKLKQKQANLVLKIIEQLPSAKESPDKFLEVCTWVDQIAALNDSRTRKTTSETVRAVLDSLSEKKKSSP
Excerpt: as §1
as §2, with “subunit. The N-terminal subunit recognizes the reverse complement of the AG portion of the four base pair center sequence, which is CT, and the C-terminal subunit recognizes the GC portion of the […] center sequence.” for “subunit.”, “TTGG” for “TCAA”, “248)” for “331)”, “1. The substitutions in each subunit are provided in Tables 177 and 178, respectively.” for “1.”

A further data set addresses T6, LOX 3-4m.1973 (artificial (I-CreI derived)).
T6 chain: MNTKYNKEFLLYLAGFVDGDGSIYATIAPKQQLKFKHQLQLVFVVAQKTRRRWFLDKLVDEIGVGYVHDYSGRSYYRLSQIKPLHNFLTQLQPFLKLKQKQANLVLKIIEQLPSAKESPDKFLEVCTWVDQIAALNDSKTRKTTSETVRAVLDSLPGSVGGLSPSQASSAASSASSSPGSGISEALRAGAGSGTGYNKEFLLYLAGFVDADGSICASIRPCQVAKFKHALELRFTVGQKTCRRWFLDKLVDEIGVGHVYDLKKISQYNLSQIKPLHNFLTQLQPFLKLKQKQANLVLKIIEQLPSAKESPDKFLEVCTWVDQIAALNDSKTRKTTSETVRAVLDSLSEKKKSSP
Excerpt: as §1
as §2, with “subunit. The N-terminal subunit recognizes the reverse complement of the AG portion of the four base pair center sequence, which is CT, and the C-terminal subunit recognizes the GC portion of the […] center sequence.” for “subunit.”, “TTGG” for “TCAA”, “248)” for “331)”, “1. The substitutions in each subunit are provided in Tables 177 and 178, respectively.” for “1.”

The target of another data set is T7, LOX 3-4m.1981 (artificial (I-CreI derived)).
T7 chain: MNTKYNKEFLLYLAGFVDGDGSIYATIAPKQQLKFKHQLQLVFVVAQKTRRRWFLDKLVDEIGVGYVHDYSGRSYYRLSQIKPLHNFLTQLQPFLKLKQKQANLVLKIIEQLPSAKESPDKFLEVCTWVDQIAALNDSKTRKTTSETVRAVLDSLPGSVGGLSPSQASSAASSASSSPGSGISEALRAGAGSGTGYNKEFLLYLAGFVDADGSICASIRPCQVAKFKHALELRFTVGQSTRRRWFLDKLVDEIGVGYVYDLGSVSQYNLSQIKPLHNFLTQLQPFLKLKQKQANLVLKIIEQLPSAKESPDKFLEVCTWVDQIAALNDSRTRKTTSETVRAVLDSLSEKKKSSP
Excerpt: as §1
as §2, with “subunit. The N-terminal subunit recognizes the reverse complement of the AG portion of the four base pair center sequence, which is CT, and the C-terminal subunit recognizes the GC portion of the […] center sequence.” for “subunit.”, “TTGG” for “TCAA”, “248)” for “331)”, “1. The substitutions in each subunit are provided in Tables 177 and 178, respectively.” for “1.”

The next data set has as its target T8, LOX 3-4m.1970 (artificial (I-CreI derived)).
T8 chain: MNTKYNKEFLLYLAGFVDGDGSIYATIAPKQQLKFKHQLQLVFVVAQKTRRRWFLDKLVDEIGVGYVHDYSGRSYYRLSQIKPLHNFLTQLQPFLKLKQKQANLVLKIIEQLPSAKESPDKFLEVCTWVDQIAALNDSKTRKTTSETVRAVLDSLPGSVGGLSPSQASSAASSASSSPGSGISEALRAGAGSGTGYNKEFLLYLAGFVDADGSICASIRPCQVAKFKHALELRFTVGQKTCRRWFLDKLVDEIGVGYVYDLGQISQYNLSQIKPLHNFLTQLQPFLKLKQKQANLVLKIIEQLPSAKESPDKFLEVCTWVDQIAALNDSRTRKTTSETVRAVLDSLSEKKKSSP
Excerpt: as §1
as §2, with “subunit. The N-terminal subunit recognizes the reverse complement of the AG portion of the four base pair center sequence, which is CT, and the C-terminal subunit recognizes the GC portion of the […] center sequence.” for “subunit.”, “TTGG” for “TCAA”, “248)” for “331)”, “1. The substitutions in each subunit are provided in Tables 177 and 178, respectively.” for “1.”

The target of the next data set is T9, LOX 3-4m.2125 (artificial (I-CreI derived)).
T9 chain: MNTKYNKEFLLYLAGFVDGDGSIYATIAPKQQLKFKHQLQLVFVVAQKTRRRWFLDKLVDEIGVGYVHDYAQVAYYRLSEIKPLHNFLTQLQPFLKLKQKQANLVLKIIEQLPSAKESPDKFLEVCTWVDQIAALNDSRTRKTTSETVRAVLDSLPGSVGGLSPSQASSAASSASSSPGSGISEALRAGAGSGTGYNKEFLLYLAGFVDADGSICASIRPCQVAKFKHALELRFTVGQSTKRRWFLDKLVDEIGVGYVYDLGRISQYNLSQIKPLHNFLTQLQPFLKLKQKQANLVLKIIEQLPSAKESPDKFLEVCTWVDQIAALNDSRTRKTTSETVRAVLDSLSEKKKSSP
Excerpt: as §1
(§3) Novel engineered meganucleases derived from the LOX 3-4x.109 meganuclease were prepared by making amino acid substitutions at one or more positions in the first subunit and one or more positions in the second subunit. These engineered meganucleases were then evaluated for cleavage of the LOX 3-4 recognition sequence modified to have a TTAA center sequence (SEQ ID NO: 341) in the CHO reporter assay according to Example 1. The substitutions in each subunit are provided in Tables 174 and 175, respectively.

Another data set has as its target T10, LOX 3-4m.2145 (artificial (I-CreI derived)).
T10 chain: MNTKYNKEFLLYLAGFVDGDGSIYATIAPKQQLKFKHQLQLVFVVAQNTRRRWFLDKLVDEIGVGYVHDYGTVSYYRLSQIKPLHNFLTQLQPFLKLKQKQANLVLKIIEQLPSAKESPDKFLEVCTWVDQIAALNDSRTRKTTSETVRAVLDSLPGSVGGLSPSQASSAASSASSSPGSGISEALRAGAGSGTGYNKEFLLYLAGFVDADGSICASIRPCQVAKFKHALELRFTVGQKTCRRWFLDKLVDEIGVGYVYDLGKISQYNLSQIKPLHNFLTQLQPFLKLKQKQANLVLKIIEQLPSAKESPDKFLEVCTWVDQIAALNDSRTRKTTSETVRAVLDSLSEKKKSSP
Excerpt: as §1, §3

For a further data set, the target named is T11, LOX 3-4m.2151 (artificial (I-CreI derived)).
T11 chain: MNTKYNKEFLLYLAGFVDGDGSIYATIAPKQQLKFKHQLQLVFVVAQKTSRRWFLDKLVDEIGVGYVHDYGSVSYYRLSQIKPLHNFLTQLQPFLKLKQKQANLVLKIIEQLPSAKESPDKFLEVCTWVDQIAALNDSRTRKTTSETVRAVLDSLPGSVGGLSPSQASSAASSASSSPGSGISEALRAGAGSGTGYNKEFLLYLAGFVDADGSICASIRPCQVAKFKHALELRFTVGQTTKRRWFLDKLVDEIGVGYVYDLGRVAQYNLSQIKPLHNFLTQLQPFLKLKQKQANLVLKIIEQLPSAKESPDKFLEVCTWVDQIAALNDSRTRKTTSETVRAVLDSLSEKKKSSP
Excerpt: as §1, §3

A further data set has as its target T12, LOX 3-4m.2142 (artificial (I-CreI derived)).
T12 chain: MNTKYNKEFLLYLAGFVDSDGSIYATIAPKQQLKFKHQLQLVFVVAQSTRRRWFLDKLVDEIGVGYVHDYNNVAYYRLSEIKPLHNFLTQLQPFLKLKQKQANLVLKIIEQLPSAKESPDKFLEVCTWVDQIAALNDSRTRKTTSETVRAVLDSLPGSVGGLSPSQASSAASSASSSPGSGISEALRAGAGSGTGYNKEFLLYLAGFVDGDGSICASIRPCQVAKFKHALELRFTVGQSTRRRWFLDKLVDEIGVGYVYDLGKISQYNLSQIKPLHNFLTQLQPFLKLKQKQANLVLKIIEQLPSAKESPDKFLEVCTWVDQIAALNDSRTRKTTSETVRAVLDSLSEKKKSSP
Excerpt: as §1, §3

B1: LOX 3-4 TCAA (dsDNA)
DNA 1: GTATAGCATTCAATATACGAAG
DNA 2: CTTCGTATATTGAATGCTATAC
Consider B1, for which the activity with LOX 3-4m.2165 stood at 10.3 % GFP; with LOX 3-4m.2229, 11.8 % GFP; with LOX 3-4m.2189, 11.7 % GFP; with LOX 3-4m.2157, 9.79 % GFP.

B2: LOX 3-4 TTGG (dsDNA)
DNA 1: GTATAGCATTTGGTATACGAAG
DNA 2: CTTCGTATACCAAATGCTATAC
Turning to B2, the activity in the data set with LOX 3-4m.2045 amounted to 14.2 % GFP; with LOX 3-4m.1973, 14.3 % GFP; with LOX 3-4m.1981, 13.5 % GFP; with LOX 3-4m.1970, 13.5 % GFP.

B3: LOX 3-4 TTAA (dsDNA)
DNA 1: GTATAGCATTTAATATACGAAG
DNA 2: CTTCGTATATTAAATGCTATAC
B3: the activity with LOX 3-4m.2125 came to 12.7 % GFP; in the data set with LOX 3-4m.2145, 12.9 % GFP; with LOX 3-4m.2151, 13 % GFP; in the data set with LOX 3-4m.2142, 13.9 % GFP.
